Each block holds one substance with its values, some of them ahead of it. Non-standard residues stand in square brackets, D forms with d. No end group written: not given here.
Tests used:
[1] = target: T1, API (Homo sapiens, UniProt P01009); experiment: Purification of API from F1-Apo-depleted plasma on AKVSKG column (Example 7); format: binding
T1 construct: from tissue; host or cells: human plasma (whole, fibrinogen-depleted or F1-Apo-depleted)
Protocol: (§1) Conditions that prevented the binding of albumin from F1-Apo depleted plasma were identified. The capture of albumin by AKVSKG (SEQ ID NO: 45) and D-WWLHIN (SEQ ID NO: 33) can be prevented in the presence of 50 mM caproic acid or 1.0–2.2 M NaCl, respectively. An example for API purification with AKVSKG (SEQ ID NO: 45) is provided. F1-Apo-depleted plasma (10.7 ml) containing 50 mM caproic acid, was applied at 0.4 ml/min (LV=30 cm/h; RT=5.1) onto a 2.0 ml column (CF=0.785 cm^2) that had been equilibrated with 0.14 M NaCl, 0.020 M sodium citrate, pH 7.0 (EQ buffer). After the column was washed with 19 CVs of EQ buffer to baseline, API protein was eluted with 2.0 M NaCl, 0.020 M sodium citrate, pH 6.0. The column was regenerated with 2.0 M guanidine-HCl, 2% Sarkosyl and 2% acetic acid and stored in 20% methanol.

[2] = target: T2, albumin (Homo sapiens, UniProt P02768); experiment: Albumin in AKVSKG / D-WWLHIN evaluation (Example 7); format: binding; conditions: for binding of albumin in plasma: initial evaluation
T2 construct: from tissue; host or cells: human plasma (fibrinogen-depleted or F1-Apo-depleted)
Protocol: as §1

[3] = target: T1, API; experiment: Primary screening of 6-mer library for API-binding ligands; conditions: bead screening, immunodetection / radiolabel
Protocol: Peptide libraries attached to Toyopearl-AF Amino 650M resin or Tentagel resin were evaluated with 14C-labeled fibrinogen and API. All steps were performed at room temperature. Specifically, 20 mg of Toyopearl resin beads or 40 mg of Tentagel resin beads were suspended in 20% methanol for a minimum of 2 hours in 15 ml conical polypropylene tubes (Corning). After rinsing with distilled water, the resin beads were equilibrated in 0.15 M NaCl, 0.020 M sodium citrate, pH 7.3. The resin beads were then blocked for 2 hours with 1% casein (Sigma) in 0.15M NaCl, 0.020M sodium citrate, pH 7.3. Following blocking, the resin beads were centrifuged and the supernatant removed. A solution containing 1 mM of C^14-labeled fibrinogen or 30 μM of C^14-labeled API was applied to the resin beads in the blocking solution in the presence of 0.1% Tween-20 (Sigma). The materials were incubated for 2 hours. The resin beads were washed with 0.15 M NaCl, 0.020 M sodium citrate, 0.05% Tween-20, pH 7.3, in a batch method (fibrinogen ligands) or in disposable BioRad 10 ml columns (API ligands) until radiation counts reached the background level of less than 40 DPM. The resin beads were divided into separate tubes to obtain approximately 5–10 mg of resin beads per sheet. This was accomplished by mixing each aliquot of resin beads with 20–22 ml of 1% low melting agarose solution (Sigma) at less than 40° C., and rapidly pouring the mixture onto GelBond® film sheets (BMA Cat. No. 53749, 16×18 cm; Cat. No. 53759, 12.5×24.5 cm). Spreading of the resin beads to the edge of the gel sheets was prevented by creating frames (about 23 cm×about 10 cm or about 15 cm×about 15 cm) with several layers of masking tape. About 20–22 ml of resin bead-agarose mixture was plated on each GelBond sheet. Special care was taken to spread the beads in an even monolayer to facilitate identification and isolation of individual “hot” beads. The agarose gel was then air-dried overnight and placed, bead side down, on X-ray film (Kodak Biomax MR). The agarose and autoradiography film were exposed for 4–14 days followed by a second exposure of 7 days in an about 20 cm×about 25 cm stainless steel cassette. Afterwards, the films were taped together and marked with several staple holes to ensure proper alignment of beads in agarose to film. After the films were developed, the positive beads that appeared on both films were identified under the microscope and picked by aligning the developed film(s) and agarose gel via the staple holes. Beads to be sequenced were carefully picked by cutting a square trench around the bead with a scalpel, and hydrating this area with distilled water. […]

[4] = target: T1, API; experiment: Purification of API from F1-Apo-depleted plasma on HFVAPH column (Example 6); format: binding
Protocol: (§2) Fibrinogen and Apo-A1 lipoprotein-depleted plasma (prepared in Example 5) was loaded at a linear velocity of 30 cm/hour (0.4 ml/min; RT=5.1) onto 2.0 ml column (CF=0.785 cm^2) that had been equilibrated with 0.14 M NaCl, 0.020 M sodium citrate, pH 7.0 (EQ buffer). After the column was washed with EQ buffer and 2.0 M NaCl, 0.020 M sodium citrate, pH 6.0, to baseline, the API protein was eluted with 2.0 M NaCl, 1% Tween 20, 0.020 M sodium citrate, pH 6.0. The column was regenerated with 2.0 M guanidine-HCl, 2% Sarkosyl and 2% acetic acid and stored in 20% methanol. SDS-PAGE analysis of in-process samples (reduced and non-reduced samples) was performed using a Novex 8–16% gradient gel. Not all of the API was quantitatively eluted, but could be eluted using 2M guanidine. Purification of API protein to approximately 70% purity was accomplished with ligand HFVAPH (SEQ ID NO: 46) (isolated from an L-Library).

[5] = target: T2, albumin; experiment: Albumin in HFVAPH column run (Example 6); format: binding
Protocol: as §2

[6] = target: T3, Apo-A1 lipoprotein (Homo sapiens, UniProt P02647); experiment: Apo-A1 lipoprotein purification from fibrinogen-depleted plasma on peptide resin column (Example 4); format: binding
T3 construct: from tissue; host or cells: human plasma (whole or fibrinogen-depleted)
Protocol: Apo-A1 lipoprotein purification was accomplished with D-WWLHIN (SEQ ID NO: 33) peptides and several analogs. Indeed, about 100% Apo-A1 lipoprotein depletion from plasma was repeatedly obtained with D-WWLHAN (SEQ ID NO: 56) and D-WWLHIN (SEQ ID NO: […]). Fourteen milliliters of fibrinogen-depleted plasma was loaded onto a 2.3 ml column (CF=0.785 cm^2) at 0.4 ml/min. (LV=30 cm/H; RT=5.8) that had been equilibrated with 0.14 M NaCl, 0.020 M sodium citrate, pH 7.0 (EQ buffer). After the column was washed with EQ buffer to baseline, Apo-A1 lipoprotein was eluted with 2.0 M NaCl, 1% Tween-20, 0.020M sodium citrate, pH 7.0. The column was regenerated with 2.0 M guanidine-HCl, 2% Sarkosyl, and 2% acetic acid and stored in 20% methanol.

[7] = Elution Pool (without dialysis)

T1 sequence (P01009 25-418): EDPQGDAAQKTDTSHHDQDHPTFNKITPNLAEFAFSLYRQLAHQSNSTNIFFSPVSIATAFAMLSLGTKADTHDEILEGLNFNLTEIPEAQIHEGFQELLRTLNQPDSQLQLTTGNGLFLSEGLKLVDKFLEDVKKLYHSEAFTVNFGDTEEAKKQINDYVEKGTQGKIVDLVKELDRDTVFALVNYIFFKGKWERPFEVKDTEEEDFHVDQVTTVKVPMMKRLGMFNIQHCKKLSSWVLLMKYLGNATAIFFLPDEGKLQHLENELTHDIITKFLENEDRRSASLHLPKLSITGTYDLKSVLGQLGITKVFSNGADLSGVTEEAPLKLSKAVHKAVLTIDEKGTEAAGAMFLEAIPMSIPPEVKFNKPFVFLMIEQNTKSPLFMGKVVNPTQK
T3 sequence (P02647 25-267 limits assumed): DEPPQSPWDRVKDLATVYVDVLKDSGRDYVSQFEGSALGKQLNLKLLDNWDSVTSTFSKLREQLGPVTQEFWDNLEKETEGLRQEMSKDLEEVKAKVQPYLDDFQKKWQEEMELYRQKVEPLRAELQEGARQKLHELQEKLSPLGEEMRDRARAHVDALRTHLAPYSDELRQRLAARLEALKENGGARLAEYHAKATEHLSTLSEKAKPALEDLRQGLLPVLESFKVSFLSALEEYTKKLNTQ

captured API protein recovered ([1]; 2.0 M NaCl elution pool, nephelometric analysis): 71%
API ([1]; Elution (1% Tween)): 0.05 mg/mL
Total API ([1]; Elution (1% Tween)): 0.5 mg
API ([1]; Elution (2 M NaCl)): 0.76 mg/mL
Total API ([1]; Elution (2 M NaCl)): 7.6 mg
Total API ([1]; Flow through + Post Wash, load 12.7 mg): 2.0 mg
API ([1]; Flow through + Post Wash, plasma load 10.7 ml, 1.19 mg/ml, 50 mM caproic acid): 0.07 mg/mL
API ([1]; Wash (0.3 M NaCl)): 0.11 mg/mL
Total API ([1]; Wash (0.3 M NaCl)): 1.3 mg
API ([1]; Wash, first 2.0 ml fraction): 0.06 mg/mL
Total API ([1]; Wash, first 2.0 ml fraction): 0.1 mg
API ([1]; Wash, second 2.0 ml fraction): <0.04 mg/mL
purity of the API eluate ([1]; densitometric analysis): 85%
Albumin ([2]; Elution (1% Tween)): <0.02 mg/mL
Albumin ([2]; Flow through + Post Wash, nephelometric determination, load 20 mg/ml): 7.8 mg/mL
Albumin ([2]; Wash (0.3 M NaCl)): 0.63 mg/mL
Albumin ([2]; Wash, first 2.0 ml fraction): 0.14 mg/mL
Albumin ([2]; Wash, second 2.0 ml fraction): 0.06 mg/mL
capture of albumin from F1-Apo depleted plasma ([2]; in the presence of 50 mM caproic acid): prevented
binding of albumin in plasma [2]: binds albumin in addition to API protein
identified as API-binding peptide ligand from the 6-mer library [3]: API-binding
Substance: AKVSKG ([dA]KVSKG; not fully specified (residues 2, 3, 4, 5))

purity of purified API protein [4]: approximately 70%
API ([4]; 2 M Guanidine #23): 0.1 mg/mL
Total API ([4]; 2 M Guanidine #23): 0.4 mg
Total API ([4]; Elution Pool (with dialysis)): 1.2 mg
API ([4]; Elution Pool (with dialysis), 2.0 M NaCl, 1% Tween 20): 0.15 mg/mL
Total API [4, 7]: 1.68 mg
API ([4]; Elution Pool (without dialysis), 2.0 M NaCl, 1% Tween 20): 0.21 mg/mL
Total API ([4]; Flow through, load 7.03 mg): 3.36 mg
API ([4]; Flow through, load 9.5 ml, 0.74 mg/ml): 0.21 mg/mL
API ([4]; Postwash): <0.04 mg/mL
Albumin ([5]; 2 M Guanidine #23): <0.02 mg/mL
Albumin ([5]; Elution Pool (with dialysis)): <0.02 mg/mL
Albumin [5, 7]: <0.02 mg/mL
Albumin ([5]; Flow through, load 22.6 mg/ml): 12.6 mg/mL
Albumin ([5]; Postwash): 0.93 mg/mL
albumin binding from plasma ([5]; in the presence of sodium citrate): does not bind albumin
identified as API-binding peptide ligand from the 6-mer library [3]: API-binding
Substance: HFVAPH

Apo-A1 lipoprotein depletion from plasma [6]: about 100%
capture of albumin from F1-Apo depleted plasma ([2]; in the presence of 1.0–2.2 M NaCl): prevented
binding of albumin in plasma [2]: binds albumin in addition to API protein
identified as API-binding peptide ligand from the 6-mer library [3]: API-binding
Substance: WWLHIN ([dW]WLHIN; not fully specified (residues 2, 3, 4, 5, 6)) [D-WWLHIN]

Reference: patent publication US7223734B2, “Plasma protein-binding ligands” (The American National Red Cross, priority 2002, dated 2007)
